For this assay, the system named is CNA/B. In words: Affinity of CLMB T44E for CNA/B. The class given is binding. The note with it: glutamate for threonine at position 44; data not shown.

B1: CLMB^T44E (protein)
chain: MGLKMSCLKGFQMCVSSSSSSHDEAPVLNDKHLDVPDIIITPPEPTGMMLPRDLGSTVWLDETGSCPDDGEIDPEA
B1: the “affinity for CNA/B relative to CLMB” value is on record as “failed to show increased affinity”.
